Reference: publication PMC11681868
Where no end group is shown, it is not given here. [ ]: non-standard residue; d: D form. pS = N[C@@H](COP(=O)(O)O)C(=O)O

Key:
Assay in all cases: ITC; iTC200; 5 μM scFv in the cell, 50 μM peptide in the syringe; samples dialyzed against PBS; triplicate
[1] = target: rabbit antibody A4 scFv (wild type) (rabbit)
[2] = target: rabbit antibody C7 scFv H-S52A (rabbit)
[3] = target: rabbit antibody A4 scFv H-T56A (rabbit)
[4] = target: rabbit antibody A4 scFv H-S53A (rabbit)
[5] = target: rabbit antibody A4 scFv H-S54A (rabbit)
[6] = target: rabbit antibody C7 scFv H-S54A (rabbit)
[7] = target: rabbit antibody C7 scFv (wild type) (rabbit)
Sequence of rabbit antibody C7 scFv (wild type) (rabbit) (heavy, as listed by the source, chain 1 of 2): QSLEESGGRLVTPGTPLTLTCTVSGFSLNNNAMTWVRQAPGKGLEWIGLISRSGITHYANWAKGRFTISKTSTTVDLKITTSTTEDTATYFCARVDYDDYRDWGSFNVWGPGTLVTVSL
Sequence of rabbit antibody C7 scFv (wild type) (rabbit) (light, as listed by the source, chain 2 of 2): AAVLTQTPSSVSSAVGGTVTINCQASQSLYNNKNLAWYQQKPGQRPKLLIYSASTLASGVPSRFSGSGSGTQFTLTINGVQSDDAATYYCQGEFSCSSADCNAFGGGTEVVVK

Sequence of rabbit antibody A4 scFv H-S54A (rabbit) (heavy, as listed by the source, chain 1 of 2): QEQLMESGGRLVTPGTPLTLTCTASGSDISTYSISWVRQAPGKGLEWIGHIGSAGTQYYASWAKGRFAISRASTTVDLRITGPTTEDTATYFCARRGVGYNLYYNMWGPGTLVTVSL
Sequence of rabbit antibody A4 scFv H-S54A (rabbit) (light, as listed by the source, chain 2 of 2): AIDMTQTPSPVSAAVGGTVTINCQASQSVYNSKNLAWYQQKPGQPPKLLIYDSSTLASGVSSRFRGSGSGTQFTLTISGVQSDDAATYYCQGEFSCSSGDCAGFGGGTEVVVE
Sequence of rabbit antibody C7 scFv H-S52A (rabbit) (heavy, as listed by the source, chain 1 of 2): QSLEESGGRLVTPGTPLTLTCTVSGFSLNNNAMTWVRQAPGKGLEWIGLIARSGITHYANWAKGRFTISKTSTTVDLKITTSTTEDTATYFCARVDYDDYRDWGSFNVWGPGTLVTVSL
Sequence of rabbit antibody A4 scFv H-T56A (rabbit) (heavy, as listed by the source, chain 1 of 2): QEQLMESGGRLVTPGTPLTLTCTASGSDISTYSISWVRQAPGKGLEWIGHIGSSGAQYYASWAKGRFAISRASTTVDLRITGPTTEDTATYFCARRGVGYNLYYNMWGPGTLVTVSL
Sequence of rabbit antibody A4 scFv H-S53A (rabbit) (heavy, as listed by the source, chain 1 of 2): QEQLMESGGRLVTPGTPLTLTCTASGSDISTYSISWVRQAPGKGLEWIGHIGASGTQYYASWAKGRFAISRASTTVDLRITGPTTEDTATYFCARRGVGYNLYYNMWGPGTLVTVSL
Sequence of rabbit antibody A4 scFv (wild type) (rabbit) (heavy, as listed by the source, chain 1 of 2): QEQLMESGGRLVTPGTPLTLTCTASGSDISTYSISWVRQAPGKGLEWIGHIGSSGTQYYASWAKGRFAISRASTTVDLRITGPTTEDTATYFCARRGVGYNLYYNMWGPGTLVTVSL
Sequence of rabbit antibody C7 scFv H-S54A (rabbit) (heavy, as listed by the source, chain 1 of 2): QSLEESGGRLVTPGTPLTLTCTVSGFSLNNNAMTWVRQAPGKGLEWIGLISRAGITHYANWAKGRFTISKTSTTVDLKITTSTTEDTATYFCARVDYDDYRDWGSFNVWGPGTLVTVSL

A Kd [1] of 3.34 nM, a dH [1] of -24.4 kcal/mol and a Kd [2] of 664 nM were found for RPHFPQF[pS]YSAS [phosphorylated Akt peptide] in this work. The dH [2] was -11.1 kcal/mol, the Kd [3] was 4 nM and the dH [3] was -23 kcal/mol. The Kd [4] was 3.55 nM, the dH [4] was -24.9 kcal/mol and the Kd [5] was 6.95 nM. It also gave a dH [5] of -23.5 kcal/mol, a Kd [6] of 95.3 nM and a dH [6] of -13.3 kcal/mol. For the same binder, the Kd [7] was 26.9 nM and the dH [7] was -14.4 kcal/mol.
